According to patent US20160024219A1 (Sanofi, published 2016):
Positions count from the first letter of the chain named. “And” between values parts separate entries of the source, which are not always exact repeats. Equal values may be shown once. Each block holds one binder with its values, some of them ahead of it.

Key:
CD52 peptide #741 [1] = molecular target: T1, CD52 peptide #741; assay: BIACORE (SPR), CD52 peptide #741 chip; antibody after 4 weeks at 45C, pH 7.2 in PBS
T1 construct: also called CD52 peptide #741 chip
Protocol: (§1) The proteins (85 μg) were diluted in PBS, pH 7.2, to 0.4 mg/ml, and incubated at 45° C. for 4 weeks. Their binding affinity to CD52 peptide was measured on BIACORE™.

CD52 peptide #741 [2] = molecular target: T1, CD52 peptide #741; assay: BIACORE (SPR), CD52 peptide #741 chip; antibody after 2 weeks at 45C, pH 7.2 in PBS
Protocol: as §1

CD52 peptide #741 [3] = molecular target: T1, CD52 peptide #741; assay: BIACORE (SPR), CD52 peptide #741 chip; week 0, reference of the normalization
Protocol: as §1

CD52 peptide #741 [4] = molecular target: T1, CD52 peptide #741; assay: BIACORE (SPR), CD52 peptide #741 chip, preliminary constant; antibody after 2 weeks at 45C, pH 7.2 in PBS
Protocol: as §1

CD52 peptide #741 [5] = molecular target: T1, CD52 peptide #741; assay: BIACORE (SPR), CD52 peptide #741 chip, preliminary constant; antibody after 4 weeks at 45C, pH 7.2 in PBS
Protocol: as §1

CD52 peptide #741 [6] = molecular target: T1, CD52 peptide #741; assay: BIACORE (SPR), CD52 peptide #741 chip, preliminary constant; antibody at week 0 (before incubation)
Protocol: as §1

CD52 peptide #741 [7] = molecular target: T1, CD52 peptide #741; assay: BIACORE (SPR), CD52 peptide #741 chip, apparent KD; table 'after 37C incubation', T0, 3 component buffer pH 7.5
Description: (§2) Aliquots were taken at Week 2 and Week 4 (T2 and T4) to assess their affinity to CD52 peptide by BIACORE™.

[8] = molecular target: T2, CD52 peptide mimotope (CGQNDTSQTSSPSAD); assay: BIACORE, CD52 peptide on CM5 chip; antibody from HEK293
T2 construct: Immobilized at a low level on a CM5 chip via thiol chemistry using the N-terminal Cys; also called CD52 peptide chip
T2 peptide: CGQNDTSQTSSPSAD
Protocol: (§3) Several concentrations of anti-CD52 antibody made in HBS-EP running buffer (1 to 20 nM) were injected over the surface to monitor the binding. Kinetic analysis was performed using Scrubber2 software.

CD52 peptide #741 [9] = molecular target: T1, CD52 peptide #741; assay: BIACORE (SPR), CD52 peptide #741 chip, apparent KD; antibody after 2 weeks at 37C, 3 component buffer pH 7.5
Description: as §2

CD52 peptide #741 [10] = molecular target: T1, CD52 peptide #741; assay: BIACORE (SPR), CD52 peptide #741 chip, apparent KD; antibody after 4 weeks at 37C, 3 component buffer pH 7.5
Description: as §2

[11] = molecular target: T2, CD52 peptide mimotope (CGQNDTSQTSSPSAD); assay: BIACORE (SPR), CD52 peptide, purified antibody; concentrations used for fit 7.5nM - 0.2nM
[12] = molecular target: T2, CD52 peptide mimotope (CGQNDTSQTSSPSAD); assay: BIACORE (SPR), CD52 peptide, antibody purified from CHO cells; inset table
Protocol: as §3

CD52 peptide #741 [13] = molecular target: T1, CD52 peptide #741; assay: BIACORE (SPR), CD52 peptide #741 chip, apparent KD; antibody after 2 weeks at 45C, 3 component buffer (graph title: 45C pH7.4)
Description: as §2

[14] = molecular target: T2, CD52 peptide mimotope (CGQNDTSQTSSPSAD); assay: BIACORE, CD52 peptide on CM5 chip; antibody from CHO; CHO-produced Ab26
Protocol: as §3

[15] = molecular target: T2, CD52 peptide mimotope (CGQNDTSQTSSPSAD); assay: BIACORE (SPR), CD52 peptide, purified antibody; concentrations used for fit 240nM - 0.4nM
[16] = molecular target: T2, CD52 peptide mimotope (CGQNDTSQTSSPSAD); assay: BIACORE, CD52 peptide on CM5 chip; antibody from CHO; CHO-produced Ab1; higher concentrations, up to 1900 nM
Protocol: as §3

[17] = molecular target: T2, CD52 peptide mimotope (CGQNDTSQTSSPSAD); assay: BIACORE, CD52 peptide on CM5 chip; antibody from HEK293; HEK293-produced Ab1; higher concentrations, up to 1900 nM
Protocol: as §3

[18] = molecular target: T2, CD52 peptide mimotope (CGQNDTSQTSSPSAD); assay: BIACORE, CD52 peptide on CM5 chip
Protocol: as §3

[19] = molecular target: T2, CD52 peptide mimotope (CGQNDTSQTSSPSAD); assay: BIACORE (SPR), CD52 peptide, purified antibody; concentrations used for fit 240nM - 1.9nM; sheet's note to the asterisk: for more accurate KD, a higher concentration range should be used
[20] = molecular target: T2, CD52 peptide mimotope (CGQNDTSQTSSPSAD); assay: BIACORE (SPR), CD52 peptide, antibody purified from CHO cells; inset table, column ka; the sheet prints no unit, unit from Table 5 of the text
Protocol: as §3

[21] = molecular target: T2, CD52 peptide mimotope (CGQNDTSQTSSPSAD); assay: BIACORE (SPR), CD52 peptide, antibody purified from CHO cells; inset table, column kd; the sheet prints no unit, unit from Table 5 of the text
Protocol: as §3

[22] = molecular target: T2, CD52 peptide mimotope (CGQNDTSQTSSPSAD); assay: BIACORE (SPR), CD52 peptide, purified antibody; concentrations used for fit 240nM - 1.9nM
[23] = molecular target: T2, CD52 peptide mimotope (CGQNDTSQTSSPSAD); assay: BIACORE (SPR), CD52 peptide, purified antibody; concentrations used for fit 240nM - 0.4nM; sheet's note to the asterisk: for more accurate KD, a higher concentration range should be used

%T0 (affinity relative to T0) (CD52 peptide #741 [1]): 46.5%
%T0 (affinity relative to T0) (CD52 peptide #741 [2]): 24.9%
%T0 (affinity relative to T0) (CD52 peptide #741 [3]): 100%
Kd (CD52 peptide #741 [4]): 16.5 nM
Kd (CD52 peptide #741 [5]): 8.85 nM
Kd (CD52 peptide #741 [6]): 4.12 nM
B1: Ab11 (antibody, human IgG1, kappa, V domains shown)
VH: EVQLVESGGGLVQPGGSLRLSCAASGFPFSNYWMNWVRQAPGKGLEWVGQIRLKSNNYATHYAESVKGRFTISRDDSKNSLYLQMNSLKTEDTAVYYCTPIDYWGQGTTVTVSS
VL: DIVMTQTPLSLSVTPGQPASISCKSSQSLLYSNDKTYLNWVLQKPGQSPQRLIYLVSKLDSGVPDRFSGSGSGTDFTLKISRVEAEDVGVYYCVQGSHFHTFGQGTKLEIKR

Kd (CD52 peptide #741 [7]): 4.3 nM and 4.2 nM
Kd [8]: 1.7 nM and 2.2 nM
Kd (CD52 peptide #741 [9]): 10 nM and 8.9 nM
Kd (CD52 peptide #741 [10]): 17.4 nM and 18.3 nM
Kd [11]: 2.4 nM and 2.8 nM
Kd (CD52 peptide #741 [4]): 13.4 nM
Kd [12]: 2.61 nM
Kd (CD52 peptide #741 [13]): 28 nM
Kd (CD52 peptide #741 [5]): 25.4 nM
Kd [14]: 2.6 nM
Kd (CD52 peptide #741 [6]): 3 nM
B2: Ab26 (antibody, human IgG1, kappa, V domains shown)
VH: B1 VH
VL: B1 VL with D34G
notes: Humanized anti-human CD52 monoclonal antibody; made in HEK293 and in CHO cells; also called CTL; CTL1

Kd (CD52 peptide #741 [5]): 4.15 nM
Kd (CD52 peptide #741 [6]): 2.05 nM
B3: Ab21 (antibody, human IgG1, kappa, V domains shown)
VH: B1 VH
VL: B1 VL with D34R

Kd (CD52 peptide #741 [5]): 187 nM
Kd (CD52 peptide #741 [6]): 2.44 nM
B4: Ab22 (antibody, human IgG1, kappa, V domains shown)
VH: B1 VH
VL: B1 VL with D34S

Kd (CD52 peptide #741 [4]): 6.8 nM
Kd (CD52 peptide #741 [6]): 3.49 nM
B5: Ab20 (antibody, human IgG1, kappa, V domains shown)
VH: B1 VH
VL: B1 VL with D34Q

Kd (CD52 peptide #741 [4]): 7.17 nM
Kd (CD52 peptide #741 [6]): 2.77 nM
B6: Ab16 (antibody, human IgG1, kappa, V domains shown)
VH: B1 VH
VL: B1 VL with D34K

Kd (CD52 peptide #741 [4]): 8.97 nM
Kd (CD52 peptide #741 [5]): 33.3 nM
Kd (CD52 peptide #741 [6]): 3.5 nM
B7: Ab14 (antibody, human IgG1, kappa, V domains shown)
VH: B1 VH
VL: B1 VL with D34H

Kd [15]: 39.8 nM
koff [15]: 0.045 s⁻¹
kon [15]: 1.1e+06 M⁻¹ s⁻¹
B8: Ab12 (antibody, human IgG1, kappa, V domains shown)
VH: B1 VH
VL: B1 VL with D34E

Kd (CD52 peptide #741 [7]): 7 nM
Kd (CD52 peptide #741 [9]): 10.5 nM
Kd (CD52 peptide #741 [10]): 11.3 nM
Kd [11]: 5.6 nM
koff [11]: 0.019 s⁻¹
kon [11]: 3.4e+06 M⁻¹ s⁻¹
%T0 (affinity relative to T0) (CD52 peptide #741 [1]): 29.8%
%T0 (affinity relative to T0) (CD52 peptide #741 [2]): 30.5%
%T0 (affinity relative to T0) (CD52 peptide #741 [3]): 100%
Kd (CD52 peptide #741 [4]): 16.9 nM
Kd (CD52 peptide #741 [5]): 17.2 nM
Kd (CD52 peptide #741 [6]): 5.15 nM
B9: Ab24 (antibody, human IgG1, kappa, V domains shown)
VH: B1 VH
VL: B1 VL with D34V

Kd [16]: 1250 nM
koff [16]: 0.383 s⁻¹
kon [16]: 300000 M⁻¹ s⁻¹
Kd [17]: 1480 nM
koff [17]: 0.58 s⁻¹
kon [17]: 400000 M⁻¹ s⁻¹
fold reduction in affinity compared to Ab26 [18]: > 400 fold
Kd [19]: 366 nM
kon [20]: 306000 M⁻¹ s⁻¹
Kd [12]: 1250 nM
koff [21]: 0.383 s⁻¹
koff [22]: 0.421 s⁻¹
kon [22]: 1.1e+06 M⁻¹ s⁻¹
B10: Ab1 (antibody, human IgG1, kappa, V domains shown)
VH: B1 VH
VL: B1 VL with N33D, D34G
notes: made in HEK293 and in CHO cells

Kd [19]: 222 nM
koff [22]: 0.284 s⁻¹
kon [22]: 1.3e+06 M⁻¹ s⁻¹
B11: Ab4 (antibody, human IgG1, kappa, V domains shown)
VH: B1 VH
VL: B1 VL with N33Q, D34G
notes: made in HEK293 cells

Kd [11]: 5 nM
Kd (CD52 peptide #741 [5]): 144 nM
Kd (CD52 peptide #741 [6]): 5.63 nM
B12: Ab10 (antibody, human IgG1, kappa, V domains shown)
VH: B1 VH
VL: B1 VL with D34A

koff [15]: 0.073 s⁻¹
kon [15]: 700000 M⁻¹ s⁻¹
Kd [23]: 111 nM
B13: Ab25 (antibody, human IgG1, kappa, V domains shown)
VH: B1 VH
VL: B1 VL with D34Y

Kd [15]: 65.8 nM
koff [15]: 0.198 s⁻¹
kon [15]: 3.1e+06 M⁻¹ s⁻¹
B14: Ab3 (antibody, human IgG1, kappa, V domains shown)
VH: B1 VH
VL: B1 VL with N33K, D34G
notes: made in HEK293 cells
